Assays:
Experiment in all cases: ELISA during and after library selection
[1] = molecular target: T1, murine serum albumin (murine, UniProt P07724 25-608)
T1 construct: also called MSA; mouse serum albumin

[2] = molecular target: T2, human serum albumin (human, UniProt P02768 25-609)
T2 construct: also called HSA

[3] = molecular target: T3, bovine serum albumin (bovine, UniProt P02769 25-607)
T3 construct: also called BSA

Measured: binding result

T3 sequence (P02769 25-607 limits assumed): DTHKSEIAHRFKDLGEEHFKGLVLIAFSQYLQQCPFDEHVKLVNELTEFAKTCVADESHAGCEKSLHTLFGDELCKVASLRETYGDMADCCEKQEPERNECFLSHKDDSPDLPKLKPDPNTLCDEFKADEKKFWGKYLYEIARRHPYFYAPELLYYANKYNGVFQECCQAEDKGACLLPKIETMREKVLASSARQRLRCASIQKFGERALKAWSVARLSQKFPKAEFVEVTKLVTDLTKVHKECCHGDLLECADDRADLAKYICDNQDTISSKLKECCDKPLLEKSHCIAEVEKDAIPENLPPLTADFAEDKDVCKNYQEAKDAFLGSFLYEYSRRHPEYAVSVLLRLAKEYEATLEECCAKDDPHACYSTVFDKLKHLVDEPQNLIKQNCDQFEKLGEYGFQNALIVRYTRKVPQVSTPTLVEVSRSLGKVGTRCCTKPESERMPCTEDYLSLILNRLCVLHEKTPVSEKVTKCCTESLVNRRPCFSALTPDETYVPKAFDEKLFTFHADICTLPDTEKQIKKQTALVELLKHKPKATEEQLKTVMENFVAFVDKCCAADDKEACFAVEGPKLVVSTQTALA
T2 sequence (P02768 25-609 limits assumed): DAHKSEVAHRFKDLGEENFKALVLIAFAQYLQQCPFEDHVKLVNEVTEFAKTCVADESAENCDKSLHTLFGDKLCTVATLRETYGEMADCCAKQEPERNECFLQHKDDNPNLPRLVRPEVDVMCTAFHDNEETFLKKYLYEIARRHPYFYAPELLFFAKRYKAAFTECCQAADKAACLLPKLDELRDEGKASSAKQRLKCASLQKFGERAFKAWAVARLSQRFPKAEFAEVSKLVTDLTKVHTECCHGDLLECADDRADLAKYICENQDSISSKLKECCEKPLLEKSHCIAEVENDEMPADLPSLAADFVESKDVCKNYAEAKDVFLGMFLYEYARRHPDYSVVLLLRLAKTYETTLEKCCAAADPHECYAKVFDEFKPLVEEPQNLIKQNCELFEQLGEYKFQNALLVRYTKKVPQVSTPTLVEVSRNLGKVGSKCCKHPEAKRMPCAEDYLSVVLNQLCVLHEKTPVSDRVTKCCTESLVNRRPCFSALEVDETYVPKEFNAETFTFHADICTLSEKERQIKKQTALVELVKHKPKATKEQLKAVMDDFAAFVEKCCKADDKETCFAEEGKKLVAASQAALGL

B1: affitin Aff03 (designed binder)
chain: VKVKFGHMGEEKEVDTSKIYAVNRAGKFVHFAYDDNGKFGSGSVPEKDAPKELLDMLARAEREK
no binding: all assays above
